The assay has as its target T1, KIX domain from the human CREB binding protein (KIX wt) (human, UniProt Q92793 587-672).
T1 construct: domain: KIX domain; Expressed as GST fusion in E. coli, GST removed by PreScission cleavage
In words: fluorescence polarization, FITC-labeled MLL peptide, protein titrated 70 µM-0 µM. Here is the method:
Binding of K1-t1 and K1-t2 to mixed lineage leukemia (MLL) transcription factor was evaluated using the FITC-labeled peptide FITC-020c-[…](Nle)[…]-NH2 (SEQ ID NO: 6). This sequence is derived from MLL and will be refereed as MLL peptide throughout. A 40 nM solution of MLL peptide in 25 mM HEPES (pH 7.4), 100 mM NaCl and 2 mM TCEP was prepared. A 3-fold dilution of KIX, K1-t1 and K1-t2 was performed in 14 steps on a 384-well-plate (black, round bottom, Corning) using the same buffer. 5 μL of 40 nM MLL peptide solution was then added, and the final 20 μL solution was incubated at r.t. A final protein range of 70 μM-0 μM was used. After 1 h-incubation, fluorescence polarization was measured using a Spark 20M plate reader (Tecan) with λ(ex)=485 nm and λ(em)=525 nm. Kd were determined by applying nonlinear regression analysis of dose-response curves in GraphPad Prism software.
A general note: In fluorescence polarisation assays a small probe gives low polarisation when free and higher when bound to something large.

One may read the Kd as a measure of binding affinity in units of concentration. The low end stands for higher affinity, the high end for lower affinity.

Non-standard residues stand in square brackets, D forms with d. *: point of attachment. FITC = O=C1OC2(c3ccc(O)cc3Oc3cc(O)ccc32)c2ccc(NC(=S)*)cc21; Nle = CCCC[C@H](N)C(=O)O; AEEA = NCCOCCOCC(=O)O

T1 sequence (Q92793 587-672 limits assumed): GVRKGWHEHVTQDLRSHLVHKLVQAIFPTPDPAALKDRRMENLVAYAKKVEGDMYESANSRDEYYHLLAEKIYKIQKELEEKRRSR

B1: MLL peptide FITC-O2Oc-GNILPSDI(Nle)DFVLKNTP-NH2 (peptide)
peptide: {FITC-AEEA}-GNILPSDI[Nle]DFVLKNTP-NH2
notes: Synthetic peptide made by Fmoc SPPS on Rink amide resin; Used at 10 nM final (5 uL of 40 nM in 20 uL) in the FP assay; also called mixed lineage leukemia (MLL) transcription factor derived peptide
Molecule B1 returned a Kd of 600 nM.
